From patent publication US20090082262A1 (published 2009)
*: point of attachment. Nonanoyl = CCCCCCCCC(=O)*

Molecular target: T1, chemokine receptor 1 (CCR1) (UniProt P56482 1-355)
T1 chain: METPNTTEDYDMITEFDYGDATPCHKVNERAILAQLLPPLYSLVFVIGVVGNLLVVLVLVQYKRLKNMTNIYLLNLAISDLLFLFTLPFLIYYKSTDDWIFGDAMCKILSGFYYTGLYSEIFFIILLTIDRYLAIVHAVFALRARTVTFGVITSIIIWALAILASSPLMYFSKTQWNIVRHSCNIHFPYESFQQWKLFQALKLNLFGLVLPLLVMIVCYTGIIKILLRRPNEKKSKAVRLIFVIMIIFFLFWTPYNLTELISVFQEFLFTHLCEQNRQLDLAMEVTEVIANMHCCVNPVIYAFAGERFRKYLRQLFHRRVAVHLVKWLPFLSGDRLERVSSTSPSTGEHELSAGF
Test: competition binding

B1: PHC-1 (HCC-1[9-74]) (ligand)
chain: GPYHPSECCFTYTTYKIPRQRIMDYYETNSQCSKPGIVFITKRGHSVCTNPSDKWVQDYIKDMKEN
IC50: 0.104 nM

B2: HCC-1, residues 6-74 (ligand)
chain: SSRGPYHPSECCFTYTTYKIPRQRIMDYYETNSQCSKPGIVFITKRGHSVCTNPSDKWVQDYIKDMKEN
IC50: 6.52 nM

B3: HCC-1[11-74] (ligand)
chain: YHPSECCFTYTTYKIPRQRIMDYYETNSQCSKPGIVFITKRGHSVCTNPSDKWVQDYIKDMKEN
IC50: 5.07 nM

B4: HCC-1[8-74] (ligand)
chain: RGPYHPSECCFTYTTYKIPRQRIMDYYETNSQCSKPGIVFITKRGHSVCTNPSDKWVQDYIKDMKEN
IC50: 2.42 nM

B5: RANTES (ligand)
chain: SPYSSDTTPCCFAYIARPLPRAHIKEYFYTSGKCSNPAVVFVTRKNRQVCANPEKKWVREYINSLEMS
IC50: 0.166 nM

B6: HCC-1[7-74] (ligand)
chain: SRGPYHPSECCFTYTTYKIPRQRIMDYYETNSQCSKPGIVFITKRGHSVCTNPSDKWVQDYIKDMKEN
IC50: 4.36 nM

B7: NNY-HCC-1[10-74] (ligand)
chain: Nonanoyl-PYHPSECCFTYTTYKIPRQRIMDYYETNSQCSKPGIVFITKRGHSVCTNPSDKWVQDYIKDMKEN
modifications: ends and bridges not checked
IC50: 0.0843 nM

B8: HCC-1[10-74] (ligand)
chain: PYHPSECCFTYTTYKIPRQRIMDYYETNSQCSKPGIVFITKRGHSVCTNPSDKWVQDYIKDMKEN
IC50: 0.182 nM

B9: HCC-1[12-74] (protein)
chain: HPSECCFTYTTYKIPRQRIMDYYETNSQCSKPGIVFITKRGHSVCTNPSDKWVQDYIKDMKEN
IC50: 50.1 nM
